Values quoted from earlier work in paper PMC7083049.
pKd: −log10 of the molar value.

Target: histone H4 (Homo sapiens) (UniProt P62805)

pKd: 5.70
Substance: JMJD2A Tudor domains (from UniProt O75164)
